Experimental data reported in patent publication US20240343803A1 (SHANDONG SIMCERE BIOPHARMACEUTICAL, published 2024).

B1: SRF813-hIgG1 (antibody, V domains shown)
VH: QVQLVQSGAEVKKPGSSVKVSCKASGGTFSSAAISWVRQAPGQGLEWMGNIIPIVGIANYAQKFQGRVTITADESTSTAYMELSSLRSEDTAVYYCARDTGRGYTRHFWFDPWGQGTLVTVSS
VL: DIQMTQSPSSLSASVGDRVTITCRASQSISSYLNWYQQKPGKAPKLLIYAASSLQSGVPSRFSGSGSGTDFTLTISSLQPEDFATYYCQQSDILYTFGGGTKVEIK
notes: human IgG1 format by its name
B2: PVRIG-A105 (VHH)
VHH: EVQLVESGGGLVQAGGSLRLSCAASGRTFDRHTMTWFRQAPGKEREFVATASRIPGDTYYSHSVKGRFTISRDNAKNTVYLQLNNLKPEDTAVYYCAATSAYCSEVDCYEKGSWYDNWGQGIQVTVSS
notes: tested as VHH-hinge-CH2-CH3 (human IgG1-Fc); not shown: human IgG1 hinge-CH2-CH3

Experiments:
[1] = target: T1, human PVRIG-mFc protein (Acro, PVG-H5253) (human, UniProt Q6DKI7 41-171, limits assumed); experiment: competition FACS; blocked: human PVRIG-mFc binding to CHO-K1-CD112 cells
T1 construct: bought reagent; also called PVRIG-ECD-mFc
T1 sequence (looked up): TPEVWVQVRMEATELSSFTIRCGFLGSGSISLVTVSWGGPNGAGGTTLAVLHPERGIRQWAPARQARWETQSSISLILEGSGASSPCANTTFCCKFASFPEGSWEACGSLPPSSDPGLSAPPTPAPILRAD
How it was run: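 Antibody dilutions premixed with human PVRIG-mFc (working solution 1 μg/mL, four-fold concentration) for 30 min at 4° C, then incubated with CHO-K1-CD112 cells 30 min at 4° C. Bound PVRIG-mFc detected by PE anti-mouse IgG Fc flow cytometry; IC50 and AUC from four-parameter fit of MFI versus antibody concentration.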

[2] = target: T2, cynomolgus monkey PVRIG on FlpinCHO-cyno PVRIG cells (cynomolgus monkey, UniProt A0A2K5WVV8 41-322); experiment: FACS, FlpinCHO-cyno PVRIG cells
T2 construct: whole, on cells; also called FlpinCHO-cynomolgus monkey PVRIG
T2 sequence: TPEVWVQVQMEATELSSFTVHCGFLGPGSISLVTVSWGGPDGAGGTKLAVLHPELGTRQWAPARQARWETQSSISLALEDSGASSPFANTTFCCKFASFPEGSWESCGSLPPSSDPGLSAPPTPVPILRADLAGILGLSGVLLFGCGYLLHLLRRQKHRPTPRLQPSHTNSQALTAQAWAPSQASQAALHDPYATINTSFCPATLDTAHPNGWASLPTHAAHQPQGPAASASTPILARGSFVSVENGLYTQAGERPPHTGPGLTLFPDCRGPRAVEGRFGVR
Experimental: After discarding the cell culture medium, the cells were rinsed with PBS and digested for 8-10 minutes by adding 1 mL Versene (Gibico, 15040-066). The Ham's F12 (Gibico, 21127-022) complete medium containing 10% FBS was then added to terminate the digestion and acquire cell suspension. After counting with a cell counter (Beckman Coulter, Vi-CELL), an appropriate amount of cell suspension was centrifuged at 350×g to remove the supernatant, washed twice with PBS, stained with Zombie violet (Biolegend, 423114) and incubated at room temperature for 20 minutes. After incubation, the cells were added with staining buffer (2% FBS+PBS) to stop staining, centrifuged at 350×g to remove the supernatant, washed twice and resuspended with staining buffer to a density of 2×10⁶ cells/mL. The cells were plated into a 96-well plate (50 μL of cell suspension per well) for further use. The antibodies were diluted from the highest concentration of 46 nM (two-fold concentration) with staining buffer by 3.3-fold serial dilution. The diluted antibodies were added to the well containing 50 μL of cell suspension. The plate was placed on a microplate shaker at 400 rpm for 1 minute to fully mix the antibodies and cells, and then incubated at 4° C. for 30 minutes. After the incubation, the cells were washed twice with staining buffer (200 μL per well) and centrifuged at 350×g for 5 minutes to discard the supernatant. The PE goat anti-human IgG Fc antibody (ebioscience, 12-4998-82) was diluted 250 times with staining buffer, added into the washed wells (100 μL per well), mixed well, and stained at 4° C. for 30 minutes. After staining, the cells were washed twice with staining buffer, finally resuspended with 200 μL staining buffer and analyzed by flow cytometry (BD, Canto II). […] An antibody binding curve was drawn with concentration of antibodies as the abscissa and the corresponding Mean Fluorescence Intensity (MFI) as the ordinate. The AUC value of the curve was calculated by using a Four Parameter Logistic Fit (GraphPadPrism9). […]

[3] = target: T3, human PVRIG-his (AcroBiosystems, Cat NO. PVG-H52H4) (human, UniProt Q6DKI7 41-171, limits assumed); experiment: competition ELISA on coated human PVRIG-his; blocked ligand human PVRL2-mFc
T3 construct: treated as the same protein; also called human PVRIG-His protein; Human PVRIG-His, Acro C227P1-9ARF1-T4
T3 sequence (looked up): T1 sequence (looked up)
How it was run: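 Wells were coated with 0.5 μg/mL human PVRIG-his. Bound ligand was read by HRP/TMB absorbance, and IC50 came from a four-parameter logistic fit of OD against antibody concentration.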

IC50 (read off the curve) [1] [nM] | EC50 (read off the curve) [2] [nM] | IC50 (read off the curve) [3] [nM] | Binder
~1 | ~1 | ~0.8 | B1
~1 | ~0.5 | ~0.9 | B2
